Measurements taken from PMC9107400.

Key:
[1] = target: N-terminal FLAG-tagged SMAD4 (UniProt Q13485); assay: co-IP; HEK293T cells transfected with FLAG-tagged SMAD4 (or its deletion constructs) and AR constructs, treated with DHT 10 nM and BMP7 50 ng/mL for 12 h; nuclear extracts incubated overnight at 4 °C with anti-FLAG or anti-AR antibody (IgG isotype as control) on protein G Dynabeads; Western blot for AR and SMAD4
AR65Q (human) = AR65Q (human) (UniProt P10275); assay: co-IP; cell-free ('in vitro pull-down'): FLAG-SMAD4 (TNT wheat germ) and GST-AR constructs (E. coli S30) in vitro translated, equal amounts mixed overnight at 4 °C, captured with anti-GST antibody on protein G Dynabeads, Western blot with anti-FLAG

Row | binding compared to wild type [1] [%] | binding compared to wild type (AR65Q (human)) [%] | Substance
1 | 50 |  | AR100Q (from UniProt P10275 1-920) (natural protein)
2 |  | 70 | FLAG-tagged SMAD4, in vitro translated (from UniProt Q13485 1-552) (natural protein)
